The values below come from article PMC10359615, “Mechanistic insight into AP-endonuclease 1 cleavage of abasic sites at stalled replication fork mimics”.

Series [1] deals with RPA (RPA1/RPA2/RPA3 heterotrimer) (human, UniProt P27694;P15927;P35244 1-616;1-270;1-121). Briefly: mass photometry; 4:1 RPA:DNA; a single RPA per DNA; EMSA: 50 mM Tris pH 8, 1 mM EDTA, 0.2 mg/ml BSA, 1 mM DTT, 5% sucrose, room temperature, 5 nM DNA; FRET: 20 mM HEPES pH 7.5, 150 mM KCl, 5 mM MgCl2, 5 mM CaCl2, 1 mM DTT, ionic strength 200 mM with KCl, 23 C. The settings on record: protein: recombinant; copies: 1;1;1. (In general: In EMSA bound probe runs differently from free probe, usually more slowly.)
Sequence of RPA (RPA1/RPA2/RPA3 heterotrimer) (P27694 whole entry, chain 1 of 3): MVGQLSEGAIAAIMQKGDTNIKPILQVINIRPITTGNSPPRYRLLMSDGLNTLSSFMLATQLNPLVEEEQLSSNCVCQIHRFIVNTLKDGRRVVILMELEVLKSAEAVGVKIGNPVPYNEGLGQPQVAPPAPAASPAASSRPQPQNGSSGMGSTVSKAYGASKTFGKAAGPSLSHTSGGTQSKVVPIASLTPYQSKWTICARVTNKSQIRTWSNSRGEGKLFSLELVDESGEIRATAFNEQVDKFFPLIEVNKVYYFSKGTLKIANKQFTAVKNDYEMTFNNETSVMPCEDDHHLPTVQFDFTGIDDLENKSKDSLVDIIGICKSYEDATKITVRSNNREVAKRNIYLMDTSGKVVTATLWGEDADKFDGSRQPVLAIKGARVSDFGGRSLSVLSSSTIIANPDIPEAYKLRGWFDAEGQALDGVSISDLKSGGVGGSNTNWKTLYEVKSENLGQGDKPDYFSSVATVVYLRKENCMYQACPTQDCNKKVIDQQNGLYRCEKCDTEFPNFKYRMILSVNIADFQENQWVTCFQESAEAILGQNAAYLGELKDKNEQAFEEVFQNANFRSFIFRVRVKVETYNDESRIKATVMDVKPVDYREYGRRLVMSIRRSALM
Sequence of RPA (RPA1/RPA2/RPA3 heterotrimer) (P15927 whole entry, chain 2 of 3): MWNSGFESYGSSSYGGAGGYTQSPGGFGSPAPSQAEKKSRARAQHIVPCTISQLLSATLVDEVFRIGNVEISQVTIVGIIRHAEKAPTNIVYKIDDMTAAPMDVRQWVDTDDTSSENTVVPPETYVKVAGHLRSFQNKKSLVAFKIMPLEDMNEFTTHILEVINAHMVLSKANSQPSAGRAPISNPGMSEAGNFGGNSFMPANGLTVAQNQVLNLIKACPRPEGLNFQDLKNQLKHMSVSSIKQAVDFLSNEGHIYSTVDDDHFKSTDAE
Sequence of RPA (RPA1/RPA2/RPA3 heterotrimer) (P35244 whole entry, chain 3 of 3): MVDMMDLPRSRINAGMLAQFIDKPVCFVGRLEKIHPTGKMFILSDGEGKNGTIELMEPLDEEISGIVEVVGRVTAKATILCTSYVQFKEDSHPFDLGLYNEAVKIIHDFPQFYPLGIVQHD

Series [2] addresses APE1Dead (catalytically dead APE1) (human, UniProt P27695 1-318, D210N;E96Q). Briefly: competition; FRET; DNA pre-saturated with 75 nM Cy5-RPA; APE1Dead completely exchanges for RPA; EMSA: 50 mM Tris pH 8, 1 mM EDTA, 0.2 mg/ml BSA, 1 mM DTT, 5% sucrose, room temperature, 5 nM DNA; FRET: 20 mM HEPES pH 7.5, 150 mM KCl, 5 mM MgCl2, 5 mM CaCl2, 1 mM DTT, ionic strength 200 mM with KCl, 23 C. The settings on record: protein: recombinant; label: Cy3 at primer 3' end; 3' recessed primer-template junction, 5' ssDNA overhang 33 nt.

Sequence of APE1Dead (catalytically dead APE1) (P27695 whole entry E96Q/D210N): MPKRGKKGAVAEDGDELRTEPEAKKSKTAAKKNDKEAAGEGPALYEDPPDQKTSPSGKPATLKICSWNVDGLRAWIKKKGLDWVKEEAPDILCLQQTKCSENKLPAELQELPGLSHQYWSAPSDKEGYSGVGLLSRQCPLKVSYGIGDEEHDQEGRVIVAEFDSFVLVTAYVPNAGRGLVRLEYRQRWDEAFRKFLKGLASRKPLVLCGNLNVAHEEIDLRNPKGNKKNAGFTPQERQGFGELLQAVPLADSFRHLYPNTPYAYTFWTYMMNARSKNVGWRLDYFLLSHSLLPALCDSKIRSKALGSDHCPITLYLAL

In the case of TTTTTTTTTTTTTTTTTTTTTTTTTTTTTTTTTTT (ssDNA) [(dT)35], in series [1], the binding result is reported as “binds”.

B1: Cy3-Rec-PTJ (mixed)
DNA 1: ACTCCTTCCGCACGTAATTTTTGACGCAC
DNA 2: TGACTCTTCTGCGTTCGCTGATGCGCCGACGGGTGCGTCAAAAATTACGTGCGGAAGGAGT
modifications: THF 7 nt from the junction
In the case of B1, in series [2], the binding result is recorded as “binds”.
